We go through 42 sequences from the supplement of paper PMC12764529.

Data set [1] can be described thus: folding stability dG unfold (combined trypsin and chymotrypsin); higher = more stable. How it is done: (§1)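 Folding stability of de novo designed mini-proteins (<80 aa, no Cys; designed by TrROS, TrMRF, ProteinMPNN and the joint model) was measured by cDNA display proteolysis with trypsin and chymotrypsin. Each protease was used at 11 concentrations in a threefold dilution series plus a no-protease condition. K50 was inferred by Bayesian fitting of sequencing counts, and dG unfold was derived against a sequence-predicted unfolded-state K50 (Tsuboyama et al. method). Sequences shown include variable-length N-terminal GS-type padding (SAGGSAGG...) inside a display construct carrying a PA tag. Rows were kept only if the AF2 dimer inter-PAE was >15, to exclude likely homo-oligomers.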

Data set [2] in a line: folding stability dG unfold from chymotrypsin proteolysis; higher = more stable. On the procedure: as §1

± gives the half width of the 95% confidence interval.

As to “SAGGKITIDVNYNPEENNFRIKITWPNGKEKELPIPMEGMPAEDMRREAREFAQNLNPDGLKEVEIEPSAGG [r13_267_TrROS]”, the “folding stability dG unfold” value in data set [1] turned out to be 0.285 ± 0.43 kcal/mol; in data set [2], 0.369 ± 0.21 kcal/mol.
“SAGGKITIEKKEDGTYTITINGKKFTFKFKPGAKVEIKIEKKKDGTYTITITVTNKDGSKKTFKIKLSAGGS [r16_231_TrROS_Hall]”: the “folding stability dG unfold” value in data set [1] is 4.87 ± 0.47 kcal/mol; in data set [2] it was 4.85 ± 0.26 kcal/mol.
For the sequence “SAGGLSVSSVSTGSDKITVTVTGSGSPVATVEIPPGLPNTEVTATVLPDGSVRVELKTGNTPRTIEVPLSAG [r5_533_JUSTAS]”, the figures for the “folding stability dG unfold” value in data set [1] and in data set [2] were -0.783 ± 0.28 kcal/mol and -0.445 ± 0.14 kcal/mol, respectively.
As for “SAGGLTLSTFESDEDVKPEWDPNKPVKVKVKTLTTTEPVPNRPHTVTTTTTLRENEEGTTPFTGTDTSAGGS [r16_300_JUSTAS]”, the “folding stability dG unfold” value was -0.11 ± 0.12 kcal/mol in data set [1] and 0.612 ± 0.061 kcal/mol in data set [2].
Consider “SAGGMAEELAKLLKELFPDEEVEVEVKVEEKEVNGKKYLTITVTVRNKKTGKKIKEIKLVIELPEEESAGGS [r8_207_TrROS_Hall]”, for which the “folding stability dG unfold” value in data set [1] is > 6 kcal/mol; in data set [2], 4.23 ± 0.32 kcal/mol.
Consider “SAGGMESPVKAVDPSTGAERSFTIPREEAEALLAAGETTIEIPYSGGPMTVEITPLPDGTYAITGKAPSAGG [r13_171_JUSTAS]”, for which the “folding stability dG unfold” value in data set [1] was -0.16 ± 0.14 kcal/mol; in data set [2] it was 0.206 ± 0.24 kcal/mol.
In the same order, the values of “SAGGMESSVLSVSTITRSAPPGSPLASTTATVTVTKTDGRTIVTVPATGVVYTVNPDGTVTADPVDPPSAGG [r13_721_JUSTAS]” are < -1 kcal/mol and -0.515 ± 0.4 kcal/mol.
Regarding “SAGGMIEKVEIREVDPETGEVTVTFHVPSEDLEKLGPIPFPGVKEVRFFPGEKTIEARMPLEDALKHSAGGS [r16_614_TrMRF]”, the “folding stability dG unfold” value in data set [1] was -0.0448 ± 0.19 kcal/mol; in data set [2], 0.538 ± 0.098 kcal/mol.
With “SAGGMKKIKVPDGSEIGSVNPKGGIDYVKVKLPGSGVLVEKAVPKGGKLVIPKNIPVELVEIKDYPLSAGGS [r16_123_TrMRF]”, the “folding stability dG unfold” value was -0.366 ± 0.2 kcal/mol in data set [1] and -0.0202 ± 0.12 kcal/mol in data set [2].
On to “SAGGMKLTLTFTETSVLPDGTPVTTTSTTPLSPDVPVEEVAAALAETNPDVTVTVHEPSTGSTRTLRTSAGG [r13_663_JUSTAS]”, for which the “folding stability dG unfold” value is -0.351 ± 0.14 kcal/mol in data set [1] and 0.0497 ± 0.13 kcal/mol in data set [2].
For “SAGGMKVTPLGTEPRPDGTTTTTYLSTLPNGTPVTTTTTTSTIPPPPVPPFSPEEVAAAAARRAAAASAGGS [r16_8_JUSTAS]”, in that order: < -1 kcal/mol and 0.249 ± 0.21 kcal/mol.
In the case of “SAGGMLKVEVIEVPPDEVGPEKLRAEIKAKYPDVEVRFETLPDGTLRVTVEIPVPEEPSKPLPLEKKSAGGS [r16_535_JUSTAS]”, the “folding stability dG unfold” value is 0.482 ± 0.3 kcal/mol in data set [1] and 0.743 ± 0.077 kcal/mol in data set [2].
As for “SAGGMMRTVTEPLSPEELEELRKEGWTVLGTEPGKVTVRVPVVPPLSPEEVAQARAAGLSEAEAAAARSAGG [r19_115_JUSTAS]”, the “folding stability dG unfold” value in data set [1] amounted to 0.0214 ± 0.28 kcal/mol; in data set [2] it was 0.587 ± 0.14 kcal/mol.
Take “SAGGMPDRVRPFPFRAPVLRLDPPEPEEVEVVAFVFPDNRVLALARSPDPGRVLLAVDDGDRVLVADASAGG [r13_117_TrMRF]”: the “folding stability dG unfold” value in data set [1] was -0.477 ± 0.19 kcal/mol; in data set [2] it was 0.12 ± 0.15 kcal/mol.
For “SAGGMPLSTESFVQESSGDGTPFTTTKTTYRDVNGNPLVTPVSTVDPVAGTTTTTVTVDGTPVTTTTPSAGG [r13_948_JUSTAS]”, in that order: -0.701 ± 0.17 kcal/mol and -0.386 ± 0.2 kcal/mol.
On to “SAGGMPVPKEKVKSVLYLPHPESDEPEVLVLAELGGKPVLFVIPSELSLEEAIKAVEEGVEAGPIDLGSAGG [r13_225_TrMRF]”, for which the “folding stability dG unfold” value in data set [1] was -0.355 ± 0.27 kcal/mol; in data set [2] it was 0.402 ± 0.14 kcal/mol.
For “SAGGMRLEHLRNMIKNMPPGMKDVNINQHPGHGNYTFSVENPNKPVSIPFDSPEDQQEIQELAREYVKSAGG [r13_287_TrROS]”, in that order: -0.417 ± 0.29 kcal/mol and 0.19 ± 0.19 kcal/mol.
With “SAGGMTITLPKNMTKEELEALAKKLEEETGLKVTIEYNEETNEVTITVEGLSEEEQERIKKLLEEAASAGGS [r16_227_TrROS_Hall]”, the “folding stability dG unfold” value was > 6 kcal/mol in data set [1] and 3.49 ± 0.34 kcal/mol in data set [2].
On to “SAGGMTVTIESVERLPGGVEVRRMVIETLDPNNPTPSTVERELVTEFTPSVDPEGRPGRLARREEVLGSAGG [r13_612_JUSTAS]”, for which the “folding stability dG unfold” value in data set [1] was -0.237 ± 0.15 kcal/mol; in data set [2] it was 0.0887 ± 0.12 kcal/mol.
For the sequence “SAGGMVLEKKSPSGTTTKTVVEETPDELYVKTTTLKGKTPTTSESVIPAPPPPPLPFPSGRPEELQLLSAGG [r13_691_JUSTAS]”, the “folding stability dG unfold” value in data set [1] is < -1 kcal/mol; in data set [2], -0.632 ± 0.45 kcal/mol.
Turning to “SAGGNITPNQAKRQAQEIADWLAQEYQQQNPDMKVKVDVEVDPPDGEIKVDGEWPNGRPMAEITIPVKSAGG [r13_247_TrROS]”, the results for the “folding stability dG unfold” value in data set [1] and in data set [2] were -0.618 ± 0.24 kcal/mol and -0.0106 ± 0.13 kcal/mol, respectively.
In the same order, the values of “SAGGNRIPIPVKEIANNLNEEGWEIDEVEIYNPDDGEPKGTIPPGDPIEIPPNAPNMTIKPKIKPRKSAGGS [r8_243_TrROS]” are -0.169 ± 0.13 kcal/mol and 0.0841 ± 0.064 kcal/mol.
Consider “SAGGPEAKIEIYKLPDGYYFISVETPDNGKPMSIPIPPGEEKKIKIEPGAPIRDISIYPVKPGDPEAFSAGG [r13_122_TrROS]”, for which the “folding stability dG unfold” value in data set [1] was -0.158 ± 0.3 kcal/mol; in data set [2] it was 0.202 ± 0.33 kcal/mol.
Consider “SAGGPIVTSEVVETRPLPDGSTLVTVKTTKLLPLPVETTAPDGTVSPVPPGTPPVTVTETHLVVLEPSAGGS [r16_693_JUSTAS]”, for which the “folding stability dG unfold” value is 0.0694 ± 0.22 kcal/mol in data set [1] and 0.684 ± 0.055 kcal/mol in data set [2].
In the same order, the values of “SAGGPNMRTVTIEIPPENLKKDPDGEPYSAQDIAKHIAKHLPPDNVEIEIDKIDPDNGWFKVTIIVPSAGGS [r16_284_TrROS]” are -0.514 ± 0.44 kcal/mol and -0.0083 ± 0.2 kcal/mol.
In the same order, the values of “SAGGPNPKTVEIPSPGTPEDVRARVEELAAELRPRGRPVTVTVTVGSTPRTLALAEVASVPPDATATVGSAG [r5_626_JUSTAS]” are < -1 kcal/mol and -0.933 ± 0.4 kcal/mol.
For “SAGGPPDKSVTVTVTDEKGNPITYPVTASKPVPVYLDDPEKKLEFTVPPDSDFTAPVPPGRVSVDLRSAGGS [r16_456_JUSTAS]”, the “folding stability dG unfold” value in data set [1] amounted to 0.202 ± 0.12 kcal/mol; in data set [2], 0.637 ± 0.046 kcal/mol.
As for “SAGGRIKIDIDPHPNEPGQPVMIKIKHPNGEREIPIPPNQSPEELKEAADDLAEENGFPIDDVEIHPSAGGS [r16_753_TrROS]”, the “folding stability dG unfold” value was 0.154 ± 0.16 kcal/mol in data set [1] and 0.661 ± 0.059 kcal/mol in data set [2].
In the case of “SAGGRVKVEIYNPDSGRPMEIEINPGNGTLEIRNPNNGEPVHEFPIPDIKEIEIPFSPNGILIKIEVDSAGG [r13_720_TrROS]”, the figures for the “folding stability dG unfold” value in data set [1] and in data set [2] were -0.137 ± 0.33 kcal/mol and 0.281 ± 0.043 kcal/mol, respectively.
With “SAGGSAAPPFKVEIETEALPGPVVTRTIKVEPGSTVTIYDPGRDEALTFPVAPGTELVFTFDGTDASAGGSA [r15_224_TrMRF]”, the entries for the “folding stability dG unfold” value in data set [1] and in data set [2] were 0.342 ± 0.1 kcal/mol and 0.849 ± 0.044 kcal/mol, respectively.
As to “SAGGSAARVVEEIPGVGLLIAKPPTSDEPEIVLSLAELEEARRRSGVPPELAALIAANPDLTLELVSAGGSA [r15_359_JUSTAS]”, the “folding stability dG unfold” value in data set [1] is < -1 kcal/mol; in data set [2], -0.297 ± 0.43 kcal/mol.
Turning to “SAGGSADFQVEVERDPNNGYYEIEVRYPNGMPVEIEYNPKKNKIEVKVTPGFPPSMAENAAEELLDSAGGSA [r15_511_TrROS]”, the “folding stability dG unfold” value in data set [1] was -0.535 ± 0.49 kcal/mol; in data set [2], 0.136 ± 0.058 kcal/mol.
For “SAGGSAEKKINSPEEIKRFAKELEKKGIKILSIDAVKFPSGPVVEYKMPVLHPENGKLSTLYIKSGSAGGSA [r15_123_TrMRF]”, the “folding stability dG unfold” value in data set [1] was < -1 kcal/mol; in data set [2], -0.352 ± 0.51 kcal/mol.
With “SAGGSAEKPPIKIEIDTETDPGNGMYEVSIPIRQKNGKPKGTIDIPFNTPQQAEDWLEDLGFDKIESAGGSA [r15_127_TrROS]”, the “folding stability dG unfold” value is < -1 kcal/mol in data set [1] and -0.865 ± 0.61 kcal/mol in data set [2].
For the sequence “SAGGSAENLVRTTRTTEALPDGGTRTTTTTTLPGGLTVVTRPYYDPATGTTATTTTTLAPDETVTDSAGGSA [r15_917_JUSTAS]”, the “folding stability dG unfold” value in data set [1] was -0.0377 ± 0.16 kcal/mol; in data set [2], 0.447 ± 0.05 kcal/mol.
With “SAGGSAEPTGPPDVEVKRSTSVEGGLTLTPVTYTSPDNTETLVITYTTDPAGNLSSTTATVPPDLVSAGGSA [r15_986_JUSTAS]”, the “folding stability dG unfold” value is -0.00361 ± 0.28 kcal/mol in data set [1] and 0.276 ± 0.36 kcal/mol in data set [2].
“SAGGSAGEAEELAEAREAALRAALPPGTVVEVEVEVRVEREGDREEERVEVRVTVREPGTDRLLLESAGGSA [r15_915_JUSTAS]”: the “folding stability dG unfold” value in data set [1] is -0.173 ± 0.57 kcal/mol; in data set [2] it was 0.13 ± 0.18 kcal/mol.
As to “SAGGSAGGDHVQIEFPIWRMKEVERNPDNGEPRMDMEPIEITIWYPPDDPEKAKKIADEILDFISAGGSAGG [r6_280_TrROS]”, the “folding stability dG unfold” value in data set [1] came out at 0.409 ± 0.18 kcal/mol; in data set [2], 0.891 ± 0.14 kcal/mol.
As for “SAGGSAGGLTITLPNGATVTINEDDLEVVEVTFEPAPPAPPVRTETRTVTETRTVTTLAPGEEASAGGSAGG [r6_585_TrROS_Hall]”, the “folding stability dG unfold” value is 0.403 ± 0.11 kcal/mol in data set [1] and 0.938 ± 0.035 kcal/mol in data set [2].
Regarding “SAGGSAGGMKKYTFDSGYEFEIDGATEEEAIEKLKEEGYPLPVKKITAEEVKPEPPPPFERNLKSAGGSAGG [r6_688_JUSTAS]”, the “folding stability dG unfold” value in data set [1] was -0.451 ± 0.29 kcal/mol; in data set [2] it was 0.109 ± 0.23 kcal/mol.
As to “SAGGSAGGMTVTVEIPLPPDVPIEEVKEKVKESGYPPTKIEYDPATGKATITLSPEAKEFLEKKSAGGSAGG [r6_307_JUSTAS]”, the “folding stability dG unfold” value is < -1 kcal/mol in data set [1] and -0.425 ± 0.11 kcal/mol in data set [2].
For “SAGGSAGGNNPPKTREIWIPPDDPDDLKDLKIDGPPGDTHHFRNPGGPYRITVTDGDPKVEPWGSAGGSAGG [r6_551_TrROS]”, in that order: < -1 kcal/mol and -0.301 ± 0.49 kcal/mol.
